Source: the supplement of paper PMC9732359
± gives the uncertainty stated by the source.

Experiment: protein stability index of a GFP-peptide fusion (yeast GPS) (PSI 1-4); higher = more stable; sorted into four equal gates, so the index is relative within each strain
Outline: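 Tiled 17-residue peptides from yeast proteins were fused downstream of GFP on a plasmid that also expresses Cherry, and the pooled library was carried in yeast. Mid-log cultures grown in leucine-free medium were sorted into four equal gates by GFP/Cherry fluorescence ratio. Plasmids from each gate were PCR-amplified and Illumina-sequenced, and reads were assigned to strains by barcodes. Each peptide's protein stability index is the sum, over gates, of the gate's read frequency multiplied by its gate number.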

## IDESMPDTAIDSQMDEA [GRR1]
doa10∆
  protein stability index: 3.01 ± 0.093
pdr5∆
  protein stability index: 3.08 ± 0.08
san1∆
  protein stability index: 2.85 ± 0.078
ubr1∆
  protein stability index: 3.06 ± 0.059

## PIFDYIHIDALELAGMD [SIR3]
doa10∆
  protein stability index: 1.63 ± 0.053
pdr5∆
  protein stability index: 1.79 ± 0.054
san1∆
  protein stability index: 2.05 ± 0.064
ubr1∆
  protein stability index: 2.17 ± 0.092

## DKELRKTKFQYKFLDQN [YIL149C/MLP2]
doa10∆
  protein stability index: 2.72 ± 0.084
pdr5∆
  protein stability index: 2.96 ± 0.075
san1∆
  protein stability index: 2.96 ± 0.064
ubr1∆
  protein stability index: 2.98 ± 0.059

## MAPNTSRKQKIAKTFTV [RPL22A]
doa10∆
  protein stability index: 2.15 ± 0.17
pdr5∆
  protein stability index: 2.03 ± 0.089
san1∆
  protein stability index: 2.61 ± 0.13
ubr1∆
  protein stability index: 2.03 ± 0.092

## EYYVMMDFANLWVFQAF [SRB8]
doa10∆
  protein stability index: 2.37 ± 0.098
pdr5∆
  protein stability index: 2.37 ± 0.082
san1∆
  protein stability index: 2.63 ± 0.093
ubr1∆
  protein stability index: 2.64 ± 0.057

## RLWLKKVMEEEEQDCKC [POP8]
doa10∆
  protein stability index: 2.5 ± 0.095
pdr5∆
  protein stability index: 2.9 ± 0.084
san1∆
  protein stability index: 3.07 ± 0.079
ubr1∆
  protein stability index: 2.8 ± 0.083

## LEIALFKYRKARLEPGT [RPO31]
doa10∆
  protein stability index: 3.24 ± 0.17
pdr5∆
  protein stability index: 1.69 ± 0.13
san1∆
  protein stability index: 2.37 ± 0.12
ubr1∆
  protein stability index: 2.85 ± 0.09

## SEVANNGLIISWSNGKI [RRP42]
doa10∆
  protein stability index: 2.28 ± 0.13
pdr5∆
  protein stability index: 1.66 ± 0.054
san1∆
  protein stability index: 3.03 ± 0.091
ubr1∆
  protein stability index: 2.54 ± 0.14

## TRPYILERARDVNIVNR [YCG1]
doa10∆
  protein stability index: 3.29 ± 0.1
pdr5∆
  protein stability index: 2.78 ± 0.21
san1∆
  protein stability index: 3.48 ± 0.18
ubr1∆
  protein stability index: 3.08 ± 0.11

## PSLELSAEYLQMSLEAN [YJR042W/NUP85]
doa10∆
  protein stability index: 1.78 ± 0.087
pdr5∆
  protein stability index: 2.15 ± 0.095
san1∆
  protein stability index: 2.54 ± 0.18
ubr1∆
  protein stability index: 2.4 ± 0.07

## NSTATMQHNPLAGKRGP [PGD1]
doa10∆
  protein stability index: 3.05 ± 0.047
pdr5∆
  protein stability index: 3.09 ± 0.044
san1∆
  protein stability index: 3 ± 0.042
ubr1∆
  protein stability index: 3.03 ± 0.033

## VQQSEKLRNEVERIQKM [YIL149C/MLP2]
doa10∆
  protein stability index: 3.13 ± 0.13
pdr5∆
  protein stability index: 3.42 ± 0.2
san1∆
  protein stability index: 2.86 ± 0.2
ubr1∆
  protein stability index: 3.24 ± 0.12

## SSDVDMDDEEWRSKRIE [RPC53]
doa10∆
  protein stability index: 3.47 ± 0.1
pdr5∆
  protein stability index: 3.17 ± 0.1
san1∆
  protein stability index: 3.42 ± 0.053
ubr1∆
  protein stability index: 3.31 ± 0.069

## CKVVAEMIRGRSPEEIR [SKP1]
pdr5∆
  protein stability index: 1.95 ± 0.15
san1∆
  protein stability index: 2.21 ± 0.29
ubr1∆
  protein stability index: 1.49 ± 0.11

## EKYGKQVYDLLKRFPKM [BRR2]
san1∆
  protein stability index: 2.99 ± 0.19
ubr1∆
  protein stability index: 3.31 ± 0.14

## STNESNKSISDEITEDM [SSN2]
doa10∆
  protein stability index: 2.5 ± 0.05
pdr5∆
  protein stability index: 2.75 ± 0.057
san1∆
  protein stability index: 2.8 ± 0.05
ubr1∆
  protein stability index: 2.98 ± 0.045

## EKASRQQRKQKKNRDKK [RPS24A]
doa10∆
  protein stability index: 3.44 ± 0.094
pdr5∆
  protein stability index: 3.17 ± 0.075
san1∆
  protein stability index: 3.25 ± 0.044
ubr1∆
  protein stability index: 3.32 ± 0.083

## CELLKLTNEDPPGLMYL [SSN2]
doa10∆
  protein stability index: 2.85 ± 0.18
pdr5∆
  protein stability index: 3.06 ± 0.19
san1∆
  protein stability index: 3.26 ± 0.12
ubr1∆
  protein stability index: 3.36 ± 0.11

## GIIEPSLKALASKYNCD [RPL40A]
doa10∆
  protein stability index: 3.44 ± 0.17
pdr5∆
  protein stability index: 3.27 ± 0.23
san1∆
  protein stability index: 3.09 ± 0.085
ubr1∆
  protein stability index: 3.19 ± 0.2

## CGFWQPAWRVWLNFLRG [PRP8]
doa10∆
  protein stability index: 2.52 ± 0.072
pdr5∆
  protein stability index: 2.87 ± 0.12
san1∆
  protein stability index: 1.62 ± 0.13
ubr1∆
  protein stability index: 2.35 ± 0.062

## AKTELNEVSLAIKKSSM [SMC2]
doa10∆
  protein stability index: 3.03 ± 0.06
pdr5∆
  protein stability index: 3.12 ± 0.087
san1∆
  protein stability index: 3.04 ± 0.11
ubr1∆
  protein stability index: 2.96 ± 0.053

## NISTNTNIHEPQYINYS [SSN2]
doa10∆
  protein stability index: 3.17 ± 0.067
pdr5∆
  protein stability index: 2.98 ± 0.078
san1∆
  protein stability index: 2.74 ± 0.069
ubr1∆
  protein stability index: 2.97 ± 0.078

## FVSSGFDTSIKLDIISD [RPN14]
doa10∆
  protein stability index: 2.39 ± 0.045
pdr5∆
  protein stability index: 2.53 ± 0.047
san1∆
  protein stability index: 2.23 ± 0.057
ubr1∆
  protein stability index: 2.44 ± 0.035

## GISMFDYISGISVGLYD [SKI6]
doa10∆
  protein stability index: 2.02 ± 0.092
pdr5∆
  protein stability index: 2.02 ± 0.069
san1∆
  protein stability index: 2.03 ± 0.069
ubr1∆
  protein stability index: 2.1 ± 0.052

## LKQHNQNNLPPNFFLTL [BRR2]
doa10∆
  protein stability index: 2.81 ± 0.064
pdr5∆
  protein stability index: 3.07 ± 0.069
san1∆
  protein stability index: 2.84 ± 0.069
ubr1∆
  protein stability index: 2.94 ± 0.071

## MAKVEVNLAAIPLGKNV [RIP1]
doa10∆
  protein stability index: 3.33 ± 0.3

## LVTAGVAAAGITASTLL [CYT1]
doa10∆
  protein stability index: 1.57 ± 0.058
pdr5∆
  protein stability index: 1.76 ± 0.066
san1∆
  protein stability index: 1.62 ± 0.098
ubr1∆
  protein stability index: 1.67 ± 0.044
